From paper PMC10341807, “Lung Surfactant Protein B Peptide Mimics Interact with the Human ACE2 Receptor” (International Journal of Molecular Sciences, 2023)
Bridges are numbered along the chain shown (N, C = ends). Where no end group is shown, it is not given here.

Assays:
[1] = biological target: T1, recombinant human ACE2 receptor construct (Homo sapiens, UniProt Q9BYF1); assay: Surface plasmon resonance (SPR) binding of peptides to immobilised rhACE2; conditions: pH 7.4, read-out: ka
T1 construct: included residues Glutamine 18 to Serine 740 of the full-length protein; 10xHis (C); purchased R&D Systems

[2] = biological target: recombinant human ACE2 receptor construct (angiotensin-converting enzyme 2) (human) (UniProt Q9BYF1); assay: SPR; Biacore T100; ACE2 immobilised on the sensor chip, peptide (from 1 mg/mL in DMSO, diluted in HBS-EP buffer, 0.5 µg/mL) flowed at 30 µL/min for 5 min; 37 °C; HBS-EP: 10 mM Hepes pH 7.4, 150 mM NaCl, 3 mM EDTA, 0.005% surfactant P20
Chain of recombinant human ACE2 receptor construct (angiotensin-converting enzyme 2) (human) (Q9BYF1 18-740): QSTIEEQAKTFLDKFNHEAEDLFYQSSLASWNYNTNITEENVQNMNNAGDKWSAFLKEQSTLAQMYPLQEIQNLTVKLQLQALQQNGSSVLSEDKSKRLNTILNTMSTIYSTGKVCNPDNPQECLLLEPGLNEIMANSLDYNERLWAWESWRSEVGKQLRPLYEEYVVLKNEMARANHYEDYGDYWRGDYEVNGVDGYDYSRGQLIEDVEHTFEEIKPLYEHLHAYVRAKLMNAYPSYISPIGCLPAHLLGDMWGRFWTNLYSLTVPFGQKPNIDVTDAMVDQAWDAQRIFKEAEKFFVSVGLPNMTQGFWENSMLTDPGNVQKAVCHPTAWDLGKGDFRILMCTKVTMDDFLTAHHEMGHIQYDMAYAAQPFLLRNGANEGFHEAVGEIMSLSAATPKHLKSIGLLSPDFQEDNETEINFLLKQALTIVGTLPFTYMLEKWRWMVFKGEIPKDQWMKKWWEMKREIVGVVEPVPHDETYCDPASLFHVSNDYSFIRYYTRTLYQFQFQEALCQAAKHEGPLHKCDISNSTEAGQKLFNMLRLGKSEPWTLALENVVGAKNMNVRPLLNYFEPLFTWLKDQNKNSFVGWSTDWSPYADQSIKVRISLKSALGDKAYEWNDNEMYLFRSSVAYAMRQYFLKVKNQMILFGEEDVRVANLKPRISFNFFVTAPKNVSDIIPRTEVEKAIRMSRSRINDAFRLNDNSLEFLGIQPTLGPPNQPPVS

T1 sequence (Q9BYF1 18-740): as above

Ka [2]	Kd [2]	Kobs (at 1.05 × 10^−7 analyte) [2]	koff [2]	kon [2]	Substance	kon [1]
–	–	–	–	–	FPIPLPYCWLCRALIKRIQAMIPKGGRMLPQLVCRLVLRCS (disulfide 8-40, 11-34) [SMB]	6200 M⁻¹ s⁻¹
–	–	–	–	–	FPIPLPYYWLYRALIKRIQALIPKGGRLLPQLVYRLVLRYS [B-YL]	21900 M⁻¹ s⁻¹
1.01e+08 M⁻¹	9.87 nM	0.000712 s⁻¹	6.12e-05 s⁻¹	6200 M⁻¹ s⁻¹	Super Mini-B (SMB), synthetic lung surfactant protein B peptide mimic	–
